Test system: small intestinal immune cells
Test: Droplet-based scRNA-seq of small intestinal immune cells (LP and PP), OVA vs PBS, clustering and differential expression
Assay type: in vivo, mouse
Settings: cluster ID 6, PP, OVA vs PBS
Source text: To comprehensively characterize small intestinal immune cells, Applicants generated scRNA-Seq profiles for 58,067 immune cells collected from lamina propria (LP) and Peyer's patch (PP) regions at steady state and after induction of a type 2 inflammatory reaction to ovalbumin (OVA) (Brandt et al., 2003) (FIGS. 1A and 8A). To ensure sufficient representation of rare cells, Applicants combined a normalization strategy—removing by flow sorting either a portion of IgD+ naïve B cells, which are the most abundant cell type in PPs, or all CD19+ and CD3+ T cells (FIG. 8B, Methods)—with profiling of a sufficiently large number of cells number (P>0.99 to recover at least 15 cells from each cluster, Methods) by massively parallel scRNA-seq (Haber et al., 2017) (Methods). Applicants obtained 36,797 and 21,270 high quality cells passing initial filtering (Methods) from PP and LP regions, respectively.
Overall, Applicants annotated 27 cell subsets across the two compartments, spanning T cells, B cells, ILCs, dendritic cells (DCs), myeloid cells and stromal cells, in frequencies ranging from 0.07% to 14%. Briefly, Applicants first partitioned the cells from the PP regions by unsupervised clustering (Methods) into 46 clusters, retained the 97% of cells that were robustly assigned cell identities in each cluster (Methods), assigned the cells from the LP regions to the 46 clusters using a classifier (Methods), and visualized the data with scvis (Ding et al., 2018), a deep generative model-based method (FIGS. 1B and 8C, Methods). Next, Applicants identified genes that were differentially expressed between the cells in each cluster and the remaining cells (Table 1, Methods), as well as between pairs of clusters (Table 2), to elucidate identities of similar cell types/states. Applicants excluded from downstream analysis clusters mostly consisting of contaminants from epithelium, likely doublets, or cells with a small number of Unique Molecular Identifiers (UMIs) (FIGS. 1C and 8D), or lacking distinct markers (Methods). Altogether, Applicants retained 27 clusters spanning 85% of the cells and each associated with distinct marker genes (FIG. 8E, Methods).
To induce allergic reaction to OVA, 6 to 7 weeks old mice were sensitized twice, two weeks apart, with 50 μg of OVA plus 1 mg of aluminum potassium sulfate adjuvant via intraperitoneal injection. Two weeks later, mice were orally administered with 50 mg of OVA on every other day for a total of five times. 1 μg of α-CGRP peptide was administered simultaneously when indicated. Mice were deprived of food for 3-4 hours in cages with wood chip bedding for limiting antigen degradation in the stomach before each intragastric challenge.
Isolation of cells from Peyer's patches (PPs). Peyer's patches (PPs) were carefully dissected from the small intestine under a stereo microscope using a fine scissor, pierced once with a fine forcep. Tissues were digested in freshly made digestion buffer (RPMI-1640 containing 100 μg/ml Liberase™ and 50 μg/ml DNase I at 37° C. on a roto-mixer. After 15 min, tissues were very gently mixed using a 1 ml pipette. The supernatant was collected and added to ice-cold MACS buffer (pH 7.4; PBS plus 2% FCS and 2 mM EDTA). Pre-warmed (37° C.) fresh digestion buffer was added to the remaining tissues. After rotation at 37° C. for 15 min, the mixture was vigorously mixed using a 1 ml pipette for 1 min. Supernatants from the two steps were combined and passed through 70 μm filters and stained for FACS (below).
Isolation of cells from the lamina propria (LP). The small intestines were opened longitudinally and washed in ice-cold PBS. For scRNA-seq, roughly 0.5 cm of fragments from each of the distal, middle and proximal regions without visible PPs were collected. Epithelial cells were dissociated by tissue rotation in pre-warmed (37° C.) PBS containing 10 mM EDTA at 37° C. for 15 min, followed by additional incubation on ice for 15 min. Tissues were then shaken vigorously. […]

B1: OVA (protein, UniProt P01012 2-386, looked up)
Ovalbumin: GSIGAASMEFCFDVFKELKVHHANENIFYCPIAIMSALAMVYLGAKDSTRTQINKVVRFDKLPGFGDSIEAQCGTSVNVHSSLRDILNQITKPNDVYSFSLASRLYAEERYPILPEYLQCVKELYRGGLEPINFQTAADQARELINSWVESQTNGIIRNVLQPSSVDSQTAMVLVNAIVFKGLWEKAFKDEDTQAMPFRVTEQESKPVQMMYQIGLFRVASMASEKMKILELPFASGTMSMLVLLPDEVSGLEQLESIINFEKLTEWTSSNVMEERKIKVYLPRMKMEEKYNLTSVLMAMGITDVFSSSANLSGISSAESLKISQAVHAAHAEINEAGREVVGSAEAGVDAASVSEEFRADHPFLFCIKHIATNAVLFFGRCVSP
B1 was tested, and the “Dnajc7: LN (average fold change)” value was 0.197, the “Dusp1: LN (average fold change)” value was −0.366 and the “Dusp5: LN (average fold change)” value was −0.167. For the same molecule, the “Dusp18: LN (average fold change)” value was −0.789, the “Egr1: LN (average fold change)” value was −0.987 and the “Emp3: LN (average fold change)” value was 0.172. For the same molecule, the “Erdr1: LN (average fold change)” value was −0.520, the “Fabp2: LN (average fold change)” value was −1.495 and the “Fam46c: LN (average fold change)” value was −0.440. For the same molecule, the “Filip1l: LN (average fold change)” value was −0.295, the “Fkbp5: LN (average fold change)” value was 0.573 and the “Fosb: LN (average fold change)” value was −0.556. The “Fosl2: LN (average fold change)” value was −0.387, the “Foxp1: LN (average fold change)” value was −0.169 and the “Fyn: LN (average fold change)” value was −0.230. The “Gapdh: LN (average fold change)” value was 0.206, the “Gapt: LN (average fold change)” value was −0.204 and the “Gnb1: LN (average fold change)” value was −0.247. For the same molecule, the “Grasp: LN (average fold change)” value was −0.617, the “Gtf2i: LN (average fold change)” value was 0.283 and the “H2-Aa: LN (average fold change)” value was 0.220. For the same molecule, the “H2-Ab1: LN (average fold change)” value was 0.238, the “H2-Eb1: LN (average fold change)” value was 0.228 and the “H2afj: LN (average fold change)” value was 0.166. For the same molecule, the “Hes6: LN (average fold change)” value was 0.290, the “Hist1h1c: LN (average fold change)” value was 0.792 and the “Hist2h4: LN (average fold change)” value was 1.036. The “Ier2: LN (average fold change)” value was −0.265, the “Ier5: LN (average fold change)” value was 0.332 and the “Ifi30: LN (average fold change)” value was 0.256. For the same molecule, the “Ifrd1: LN (average fold change)” value was −0.459, the “Igha: LN (average fold change)” value was 0.596 and the “Igkc: LN (average fold change)” value was 0.194. The “Itpkb: LN (average fold change)” value was −0.230, the “Jun: LN (average fold change)” value was 0.499 and the “Junb: LN (average fold change)” value was −0.174. For the same molecule, the “Jund: LN (average fold change)” value was −0.422, the “Kdm6b: LN (average fold change)” value was −0.488 and the “Klf4: LN (average fold change)” value was −0.763. The “Klk1: LN (average fold change)” value was 0.243, the “Kmt2e: LN (average fold change)” value was −0.156 and the “Lag3: LN (average fold change)” value was 0.315. For the same molecule, the “Lgals1: LN (average fold change)” value was 0.174, the “Lmnb1: LN (average fold change)” value was −0.415 and the “Ly6c1: LN (average fold change)” value was −0.173. For the same molecule, the “Lyz1: LN (average fold change)” value was −1.858, the “Mcl1: LN (average fold change)” value was −0.199 and the “Mcpt1: LN (average fold change)” value was 0.479. For the same molecule, the “Mcpt2: LN (average fold change)” value was 0.749, the “Mir142hg: LN (average fold change)” value was −0.649 and the “Mpeg1: LN (average fold change)” value was 0.185. For the same molecule, the “Napsa: LN (average fold change)” value was 0.245, the “Neat1: LN (average fold change)” value was 0.364 and the “Nfkbia: LN (average fold change)” value was −0.191. The “Nfkbiz: LN (average fold change)” value was −0.288, the “Npc2: LN (average fold change)” value was 0.166 and the “Nr4a1: LN (average fold change)” value was −0.422. The “Nr4a3: LN (average fold change)” value was −0.556, the “Odc1: LN (average fold change)” value was −0.325 and the “Os9: LN (average fold change)” value was 0.265. For the same molecule, the “Pik3ip1: LN (average fold change)” value was 0.445, the “Pim1: LN (average fold change)” value was −0.188 and the “Plek: LN (average fold change)” value was −0.205. For the same molecule, the “Plekho2: LN (average fold change)” value was −0.406, the “Pltp: LN (average fold change)” value was 0.260 and the “Pnrc1: LN (average fold change)” value was −0.212. For the same molecule, the “Ppia: LN (average fold change)” value was 0.186, the “Ppp1r16b: LN (average fold change)” value was −0.419 and the “Ppp2ca: LN (average fold change)” value was −0.356. The “Psap: LN (average fold change)” value was 0.202, the “Ptp4a1: LN (average fold change)” value was −0.201 and the “Ptpre: LN (average fold change)” value was −0.452. The “Rel: LN (average fold change)” value was −0.305 and the “Rgs1: LN (average fold change)” value was 0.548.
